Experimental data from article PMC8569915 (ChemSusChem, 2021).

Target: the molecule itself
Test: SEC

Ac-GIAALEQKCAACEEKNAALEWKIAALEKKG-NH2 (cysteine pairing not given here) [[2SCC-(I9CL12C)2]]
stoichiometry N: 2
